Common to all, as to experiment: peptide or protein array; SH2/PTB proteins spotted on aldehyde slides, rhodamine peptide titrated in buffer B (20 mM HEPES, 100 mM KCl, 0.1% Tween-20, 5 mM DTT, pH 7.8), 1 h at room temperature; replicate assays
Common to all, as to details: both partners purified

In one experiment the target is T1, PTPN6 tandem SH2 domains (human).
T1 construct: PTPN6, human; also called PTPN6-NC; source: bacterial expression, purified

The next experiment addresses T2, SH2D1B SH2 domain (human, UniProt O14796 5-101).
T2 construct: SH2D1B, human; source: bacterial expression, purified
T2 sequence (looked up): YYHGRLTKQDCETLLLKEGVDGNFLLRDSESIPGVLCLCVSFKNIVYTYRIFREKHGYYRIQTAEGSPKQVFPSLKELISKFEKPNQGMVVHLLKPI

In experiment [1] the target is T3, PIK3R3 C-terminal SH2 domain (human).
T3 construct: PIK3R3, human; source: bacterial expression, purified

In experiment [2] the target is T4, PIK3R1 tandem SH2 domains (human, UniProt P27986 1-724).
T4 construct: PIK3R1, human; also called PIK3R1-NC; source: bacterial expression, purified
T4 sequence (P27986 whole entry, the tested form may be a part): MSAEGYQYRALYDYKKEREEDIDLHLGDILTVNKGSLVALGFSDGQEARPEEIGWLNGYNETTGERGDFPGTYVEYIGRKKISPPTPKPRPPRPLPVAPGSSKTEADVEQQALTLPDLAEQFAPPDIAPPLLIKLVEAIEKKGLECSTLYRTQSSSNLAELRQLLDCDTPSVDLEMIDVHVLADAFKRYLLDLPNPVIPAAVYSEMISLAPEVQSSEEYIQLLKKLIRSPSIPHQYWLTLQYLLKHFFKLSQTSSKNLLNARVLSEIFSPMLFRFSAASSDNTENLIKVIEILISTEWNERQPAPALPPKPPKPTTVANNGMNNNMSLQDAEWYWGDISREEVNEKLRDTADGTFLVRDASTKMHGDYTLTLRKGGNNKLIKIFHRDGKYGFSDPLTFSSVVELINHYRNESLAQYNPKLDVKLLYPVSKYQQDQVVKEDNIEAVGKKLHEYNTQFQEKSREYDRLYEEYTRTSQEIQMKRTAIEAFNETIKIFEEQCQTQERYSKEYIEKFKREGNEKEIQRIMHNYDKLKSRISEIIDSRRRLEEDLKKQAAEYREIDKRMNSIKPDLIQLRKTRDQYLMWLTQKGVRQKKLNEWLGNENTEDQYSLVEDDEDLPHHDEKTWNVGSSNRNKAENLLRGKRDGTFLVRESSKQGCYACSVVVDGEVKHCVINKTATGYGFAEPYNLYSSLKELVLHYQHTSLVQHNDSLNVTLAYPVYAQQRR

The target in a further experiment is T5, SH2D1A SH2 domain (human, UniProt O60880 6-104).
T5 construct: SH2D1A, human; source: bacterial expression, purified
T5 sequence (looked up): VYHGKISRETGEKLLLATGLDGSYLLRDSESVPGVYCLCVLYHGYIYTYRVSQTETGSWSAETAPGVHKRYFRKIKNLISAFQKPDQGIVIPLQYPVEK

Another experiment has as its target T6, BTK SH2 domain (human, UniProt Q06187 281-377).
T6 construct: BTK, human; source: bacterial expression, purified

The target in another experiment is SYK tandem SH2 domains (human).
The target of experiment [3] is T7, PIK3R2 tandem SH2 domains (human, UniProt O00459 1-728).
T7 construct: PIK3R2, human; also called PIK3R2-NC; source: bacterial expression, purified
T7 sequence (O00459 whole entry, the tested form may be a part): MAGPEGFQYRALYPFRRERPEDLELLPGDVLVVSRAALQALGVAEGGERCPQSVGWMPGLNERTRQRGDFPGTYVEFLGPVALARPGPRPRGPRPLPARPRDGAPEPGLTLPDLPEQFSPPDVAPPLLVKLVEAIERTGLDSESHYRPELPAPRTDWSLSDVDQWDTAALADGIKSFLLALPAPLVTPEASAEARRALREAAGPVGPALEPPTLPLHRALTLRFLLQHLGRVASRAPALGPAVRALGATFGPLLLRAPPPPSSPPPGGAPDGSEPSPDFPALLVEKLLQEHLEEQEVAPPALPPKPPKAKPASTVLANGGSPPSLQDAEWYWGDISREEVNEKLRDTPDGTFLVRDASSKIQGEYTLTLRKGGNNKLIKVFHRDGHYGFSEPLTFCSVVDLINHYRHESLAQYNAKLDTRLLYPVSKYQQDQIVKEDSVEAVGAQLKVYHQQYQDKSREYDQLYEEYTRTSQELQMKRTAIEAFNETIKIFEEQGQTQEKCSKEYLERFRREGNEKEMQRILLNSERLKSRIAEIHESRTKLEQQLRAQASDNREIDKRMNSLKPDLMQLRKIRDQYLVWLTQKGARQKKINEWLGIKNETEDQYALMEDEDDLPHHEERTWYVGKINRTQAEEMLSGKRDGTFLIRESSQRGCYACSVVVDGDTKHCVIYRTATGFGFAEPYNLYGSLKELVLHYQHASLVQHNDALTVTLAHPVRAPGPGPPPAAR

Another experiment addresses T8, SHC1 domain construct (human).
T8 chain: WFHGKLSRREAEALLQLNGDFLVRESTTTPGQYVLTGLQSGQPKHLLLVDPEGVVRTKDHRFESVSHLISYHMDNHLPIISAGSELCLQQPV

Values joined by “and” are separate entries in the source; they are usually repeats but may differ in a detail not shown here. Identical values can stand only once. Non-standard residues stand in square brackets, D forms with d. No end group written: not given here. pY = N[C@@H](Cc1ccc(OP(=O)(O)O)cc1)C(=O)O; Rhodamine = not defined here

T6 sequence (Q06187 281-377): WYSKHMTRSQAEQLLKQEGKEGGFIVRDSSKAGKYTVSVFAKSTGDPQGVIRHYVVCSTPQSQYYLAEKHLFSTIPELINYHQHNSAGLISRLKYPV

For Rhodamine-ETDG[pY]VAPLTCSD (reading uncertain) [ErbB2 pY1127 phosphopeptide, rhodamine-labelled, for protein microarrays], the Kd in the experiment with PTPN6 tandem SH2 domains is 1620 nM; with SH2D1B SH2 domain, 2280 nM; in experiment [1], 2040 nM and 1210 nM; in experiment [2] it was 10.9 nM and 10 nM; in the experiment with SH2D1A SH2 domain it was 1600 nM and 4590 nM; in the experiment with BTK SH2 domain it was 4710 nM and 5890 nM. Moreover, the Kd was 1300 nM and 957 nM in the experiment with SYK tandem SH2 domains; 10.6 nM and 4.66 nM in [3]; 820 nM and 978 nM with SHC1 domain construct.

The values are drawn from paper PMC3433420, “Comprehensive Binary Interaction Mapping of SH2 Domains via Fluorescence Polarization Reveals Novel Functional Diversification of ErbB Receptors” (PLoS ONE, 2012).
